Source: article PMC3648548

Molecular target: GLIC NQN mutant (D91N, E177Q, D178N), pentameric ligand-gated ion channel from Gloeobacter violaceus (Gloeobacter violaceus)
Experiment: crystal structure; GLIC-NQN mutant in 0.01% (w/v) n-tetradecyl-β-D-maltoside, ~10 mg/ml; crystallization conditions as for GLIC and GLIC-ketamine; molecular replacement with 4F8H; five subunits in the asymmetric unit

For “GLIC NQN mutant (D91N, E177Q, D178N), pentameric ligand-gated ion channel from Gloeobacter violaceus (natural protein)”, the stoichiometry N was 5.
